Columns and labels:
[1] = target: gp75 presented by HLA-A31 (COS cells transfected with gp75 plus HLA-A31) (human) (UniProt P17643)
[2] = target: tyrosinase presented by HLA-A24 (COS-7 cells transfected with tyrosinase + HLA-A24) (human)
[3] = target: gp100 with HLA-A24 (COS-7 cells transfected with gp100 + HLA-A24) (human) (UniProt P40967)
[4] = target: MART-1 with HLA-A24 (COS-7 cells transfected with MART-1 + HLA-A24) (human) (UniProt Q16655)
[5] = target: gp75 with HLA-A24 (COS-7 cells transfected with gp75 + HLA-A24) (human) (UniProt P17643)
[6] = target: p15 presented by HLA-A24 (293-A24 or COS-7 cells transfected with the p15 cDNA and HLA-A24) (human)
[7] = target: gp100 presented by HLA-A2 (COS cells transfected with gp100 plus HLA-A2) (human) (UniProt P40967)
[8] = target: MART-1 presented by HLA-A2 (COS cells transfected with MART-1 plus HLA-A2) (human) (UniProt Q16655)
[9] = target: Clone 2 (truncated p15 RT-PCR product from 888 EBV B cells) presented by HLA-A24 on COS-7 cells (human)
[10] = target: β-gal with HLA-A24 (COS-7 cells transfected with β-gal + HLA-A24) (human)
[11] = target: Clone 1 (full length p15 RT-PCR product from 888 EBV B cells) presented by HLA-A24 on COS-7 cells (human)
[12] = target: p15 9-18 peptide … presented by HLA-A24 on 888 EBV B cells (human)
[13] = target: p15 10-18 peptide … presented by HLA-A24 on 888 EBV B cells (human)
[14] = target: p15 9-18 peptide … presented by HLA-A24 on 888 EBV B cells (human); remark: listed apart in the source
[15] = target: p15 10-18 peptide … presented by HLA-A24 on 888 EBV B cells (human); remark: listed apart in the source
[16] = target: tyrosinase presented by HLA-A24 (COS-7 cells transfected with tyrosinase + HLA-A24) (human); remark: listed apart in the source
[17] = target: β-gal with HLA-A24 (COS-7 cells transfected with β-gal + HLA-A24) (human); remark: listed apart in the source
[18] = target: tyrosinase peptide T9180 (…) on HLA-A24+ 888 EBVB cells (human)
[19] = target: tyrosinase peptide T9206 (…) presented by HLA-A24 on 888 EBVB cells (human)
[20] = target: tyrosinase peptide T10213 (…) on HLA-A24+ 888 EBVB cells (human)
[21] = target: tyrosinase peptide T10180 (…) on HLA-A24+ 888 EBVB cells (human)
[22] = target: tyrosinase peptide T10209 (…) on HLA-A24+ 888 EBVB cells (human)
[23] = target: tyrosinase peptide T10206 (…) presented by HLA-A24 on 888 EBVB cells (human)
[24] = target: tyrosinase peptide T10166 (…) on HLA-A24+ 888 EBVB cells (human)
[25] = target: tyrosinase peptide T9199 (…) on HLA-A24+ 888 EBVB cells (human)
[26] = target: tyrosinase peptide T10199 (…) on HLA-A24+ 888 EBVB cells (human)
[27] = target: tyrosinase peptide T9177 (…) on HLA-A24+ 888 EBVB cells (human)
[28] = target: tyrosinase peptide T9181 (…) on HLA-A24+ 888 EBVB cells (human)

Q: With “TIL 586 (cells without a defined receptor)” as the substance, how does the GM-CSF [1] read?
A: Its GM-CSF is 770 pg/mL.

Q: For “TIL 888 (cells without a defined receptor)”, which GM-CSF [2] is on record?
A: Its GM-CSF is 1500 pg/mL.

Q: What about the GM-CSF [3] of the same substance?
A: Its GM-CSF is 120 pg/mL.

Q: And the GM-CSF [4]?
A: The GM-CSF was 140 pg/mL.

Q: And the GM-CSF [5]?
A: The GM-CSF was 130 pg/mL.

Q: What about the GM-CSF [6] of the same substance?
A: The GM-CSF was 60 pg/mL.

Q: Which GM-CSF [7] does the source give for “TIL 1200 (cells without a defined receptor)” here?
A: Its GM-CSF is 1500 pg/mL.

Q: How did the GM-CSF [8] turn out when “TIL 1235 (cells without a defined receptor)” was run?
A: The GM-CSF was 1800 pg/mL.

Q: What does the source list for “TIL 1290 (cells without a defined receptor)”?
A: GM-CSF [2]: 20 pg/mL; GM-CSF [3]: 10 pg/mL; GM-CSF [4]: 20 pg/mL; GM-CSF [5]: 20 pg/mL; GM-CSF (pg/ml), Expt. 1 and Expt. 2 [9]: 300 pg/mL; GM-CSF (pg/ml), Expt. 1 and Expt. 2 [10]: 40 pg/mL; GM-CSF (pg/ml), Expt. 1 and Expt. 2 [11]: 740 pg/mL; minimum peptide concentration sensitizing 888 EBV B cells for lysis (51Cr release) [12]: 10 ng/mL; minimum peptide concentration stimulating significant GM-CSF release [12]: 10 ng/mL; minimum peptide concentration sensitizing 888 EBV B cells for lysis (51Cr release) [13]: 1 ng/mL; minimum peptide concentration stimulating significant GM-CSF release [13]: 10 ng/mL; GM-CSF (pg/ml) at 10 ug/ml peptide [14]: 780 pg/mL; GM-CSF (pg/ml) at 10 ug/ml peptide [15]: 910 pg/mL; GM-CSF [6]: 400 pg/mL

Q: Which GM-CSF Secretion [16] does the source give for “TIL 1413 (cells without a defined receptor)” here?
A: Its GM-CSF Secretion is 292 pg/mL.

Q: And the GM-CSF Secretion [17]?
A: Its GM-CSF Secretion is 30 pg/mL.

Q: What about the % Specific Lysis (E:T 40:1) and GM-CSF (pg/ml) (% specific lysis) [18] of the same substance?
A: The % Specific Lysis (E:T 40:1) and GM-CSF (pg/ml) (% specific lysis) was 2.

Q: And the % specific lysis (E:T 40:1) (% specific lysis) [19]?
A: Its % specific lysis (E:T 40:1) (% specific lysis) is 26.

Q: And the % Specific Lysis (E:T 40:1) and GM-CSF (pg/ml) (% specific lysis) [20]?
A: Its % Specific Lysis (E:T 40:1) and GM-CSF (pg/ml) (% specific lysis) is 1.

Q: What about the % Specific Lysis (E:T 40:1) and GM-CSF (pg/ml) (% specific lysis) [21] of the same substance?
A: The % Specific Lysis (E:T 40:1) and GM-CSF (pg/ml) (% specific lysis) was 1.

Q: What about the % Specific Lysis (E:T 40:1) and GM-CSF (pg/ml) (% specific lysis) [22] of the same substance?
A: Its % Specific Lysis (E:T 40:1) and GM-CSF (pg/ml) (% specific lysis) is 0.

Q: And the % Specific Lysis (E:T 40:1) and GM-CSF (pg/ml) (% specific lysis) [23]?
A: The % Specific Lysis (E:T 40:1) and GM-CSF (pg/ml) (% specific lysis) was 20.

Q: What about the % Specific Lysis (E:T 40:1) and GM-CSF (pg/ml) (% specific lysis) [24] of the same substance?
A: Its % Specific Lysis (E:T 40:1) and GM-CSF (pg/ml) (% specific lysis) is -1.

Q: And the % Specific Lysis (E:T 40:1) and GM-CSF (pg/ml) (% specific lysis) [25]?
A: The % Specific Lysis (E:T 40:1) and GM-CSF (pg/ml) (% specific lysis) was 0.

Q: What about the % Specific Lysis (E:T 40:1) and GM-CSF (pg/ml) (% specific lysis) [26] of the same substance?
A: Its % Specific Lysis (E:T 40:1) and GM-CSF (pg/ml) (% specific lysis) is 1.

Q: And the % Specific Lysis (E:T 40:1) and GM-CSF (pg/ml) (% specific lysis) [27]?
A: The % Specific Lysis (E:T 40:1) and GM-CSF (pg/ml) (% specific lysis) was 0.

Q: What about the % Specific Lysis (E:T 40:1) and GM-CSF (pg/ml) (% specific lysis) [28] of the same substance?
A: Its % Specific Lysis (E:T 40:1) and GM-CSF (pg/ml) (% specific lysis) is -1.

— patent US5843648
